Source: US20250002528A1 (OXFORD UNIVERSITY INNOVATION, published 2025)

Tests used:
SpyTag-MBP = biological target: T1, SpyTag-MBP; assay: ITC, monomeric SpySwitch, pH 7.5, 5 °C; ITC, pH 7.5, 5 C
T1 construct: Fusion of SpyTag and MBP

SpyTag003-MBP = biological target: T2, SpyTag003-MBP; assay: as above
T2 construct: Fusion of SpyTag003 and MBP

B1: SpySwitch (designed binder)
chain: MSYYHHHHHHGSGGSGAMVTTLSGLSGEQGPSGDMTTEEDSATHIHFHKHDEDGRELAGATMELRDCSGKTISTWITDGHVKDFYLYPGKYTFVATAAPDGHHVATPIEFTINEDGQVTVDGEATEGDPHTGSSGS
notes: also called SpySwitch resin; monomeric SpySwitch
Kd (SpyTag-MBP): 1100 nM | stoichiometry (SpyTag-MBP): 1 | Kd (SpyTag003-MBP): 1500 nM | stoichiometry (SpyTag003-MBP): 1
